# Where a chain is given by its changes, count along the chain named. Names and notes keep the numbering of the source.
# B1: H7A VNAR-hFc fusion (Fc fusion)
# chain: PGVDQTEQTIKKEEGESVTIKCVMRVKYPALASTSRYRKKSGSREETISKGGRYVETVNYSSKSISVRINDMTVEDSGRYRCNVYEEYAVDCDALVYQDVYGDGTAVTVNA
# notes: Bivalent VNAR-Fc, VNAR N-terminal to human IgG1 Fc; Expi293; not shown: human IgG1 Fc (hinge, CH2, CH3) of vector pFUSE-hIgG1e3-Fc2
# B2: H6 VNAR-hFc fusion (Fc fusion)
# chain: ARVDQTPQTITKEEGESLTINCVLRTHSNALASTSWYRKKSGSTREETISKGGRYVETVNSGSKSFSLRINDLTVEDSGTYRCNVYAFLEIQPNIYHEFDVYGDGTAVTVNA
# notes: as for B1
# B3: G3 VNAR-hFc fusion (Fc fusion)
# chain: ARVDQTPQTITKETGESLTINCVLRDNNCALSTTYWYRKKSGSTNEENISKGGRYVETVNSGSKSFSLRINDLTVEDSGTYRCKVHFFPSFCNSTSIRSVDVYGGGTVVTVNA
# notes: as for B1
# B4: G6 VNAR-hFc fusion (Fc fusion)
# chain: ARVDQTPQTITKEEGESLTINCVLRVETRALASTSWYRKKSGSTREETISKGGRYVETVNSGSKSFSLRINDLTVEDSGTYRCNVYIRHYSEFTQAPFRDVYGDGTAVTVNA
# notes: as for B1
# B5: A8 VNAR-hFc fusion (Fc fusion)
# chain: ARVDQTPQTITKEEGESLTINCVLRRNFQLASTSWYRKKSGSTREETISKGGRYVETVNSGSKSFSLRINDLTVEDSGTYRCNVYGFVEFAKNIVEFIDVYGDGTAVTVNA
# notes: as for B1
# B6: E12 VNAR-hFc fusion (Fc fusion)
# chain: ARVDQTPQTITKEEGESLTINCVLRTQDPALASTSWYRKKSGSTREETISKGGRYVETVNSGSKSFSLRINDLTVEDSGTYRCNVYFLLAPTKTKLQGIDVYGDGTAVTVNA
# notes: as for B1
# B7: H7 VNAR-hFc fusion (Fc fusion)
# chain: ARVDQTPQTITKEEGESLTINCVLRYNNPALASTSWYRKKSGSTREETISKGGRYVETVNSGSKSFSLRINDLTVEDSGTYRCNVYFFPSFLVDKLQSHDVYGDGTAVTVNA
# notes: as for B1
# B8: D1 VNAR-hFc fusion (Fc fusion)
# chain: ARVDQTPQTITKEEGESLTINCVLRHNYSALASTSWYRKKSGSTREETISKGGRYVETVNSGSKSFSLRINDLTVEDSGTYRCNVYGISFIEEKIRYDFDVYGDGTAVTVNA
# notes: Bivalent VNAR-Fc, VNAR N-terminal to human IgG1 Fc; Expi293; also called D1-hFc; not shown: human IgG1 Fc (hinge, CH2, CH3) of vector pFUSE-hIgG1e3-Fc2
# B9: G12 VNAR-hFc fusion (Fc fusion)
# chain: ARVDQTPQTITKETGESLTINCVLRDSNCALSSTYWYRKKSGSTNEALISKGGRYVETVNSGSKSFSLRINDLTVEDSGTYRCNVVQDLRDDCFFRDVYGGGTAVTVNA
# notes: as for B1
# B10: C6 VNAR-hFc fusion (Fc fusion)
# chain: B9 chain with Q87Y
# notes: as for B1
# B11: B12 VNAR-hFc fusion (Fc fusion)
# chain: ARVDQTPRSVTKETGESLTINCVLRDASYALGSTCWYRKKSGSTNEESISKGGRYVETVNSGSKSFSLRINDLTVEDGGTYRCGVARGWRTLNYLCDVRTGEWSCVWRAAACGDGTAVTVNA
# notes: as for B1
# B12: G10 VNAR-hFc fusion (Fc fusion)
# chain: ARVDQTPQTITKETGESLTINCVLRDSNCALSSTYWYRKKSGSTNEENISKGGRYVETVNSGSKSFSLKINDLTVEDSGTYRCKVVFKLFSGRACAGEKDVYGGGTVVTVNA
# notes: as for B1
# B13: F12 VNAR-hFc fusion (Fc fusion)
# chain: ARVDQTPQTITKEEGESLTINCVLRVHGRALASTSWYRKKSGSTREETISKGGRYVETVNSGSKSFSLRINDLTVEDSGTYRCNVYGLSFGDIEGVKKIDVYGDGTAVTVNA
# notes: Bivalent VNAR-Fc, VNAR N-terminal to human IgG1 Fc; Expi293; also called F12-hFc; clone F12; not shown: human IgG1 Fc (hinge, CH2, CH3) of vector pFUSE-hIgG1e3-Fc2
# B14: F1 VNAR-hFc fusion (Fc fusion)
# chain: B13 chain with F90S
# notes: Bivalent VNAR-Fc, VNAR N-terminal to human IgG1 Fc; Expi293; also called Fl; not shown: human IgG1 Fc (hinge, CH2, CH3) of vector pFUSE-hIgG1e3-Fc2
# B15: H12 VNAR-hFc fusion (Fc fusion)
# chain: B13 chain with R29C, G91V
# notes: as for B1
# B16: H8 VNAR-hFc fusion (Fc fusion)
# chain: ARVDQTPQTITKETGESLTINCVLRDSNCALPSTYWYRKKSGSTNEESISKGGRYVETVNSGSKSFSLRINDLVVEDSGTYRCKVGNYCIRLCYDMKFAVDVYGGGTAVTVNA
# notes: as for B1
# B17: F11 VNAR-hFc fusion (Fc fusion)
# chain: ARVDQTPQTITKEEGESLTINCVLRGEFYALASTSWYRKKSGSTREETISKGGRYVETVNSGSKSFSLRINDLTVEDSGTYRCNVYGYRIFSPEVKGPNDVYGDGTAVTVNA
# notes: as for B1
# B18: E12A VNAR-hFc fusion (Fc fusion)
# chain: ARVDQTPQTIAREEGESVTINCVVRDSNRALASTSWCSEKYVSTREESISKGGRYVETVNSGSKSFSLRINDLTVEDSGTYRCNVYFFPSFEVDVLQTNDVYGDGTAVTVNA
# notes: as for B1
# How the values were obtained:
# [1] = molecular target: human CD98hc ectodomain (recombinant) (human) (UniProt P08195); assay: ELISA, VNAR-hFc in Expi293 medium on coated ectodomain
# human CD98hc ectodomain (recombinant) (human), sequence (P08195 206-630): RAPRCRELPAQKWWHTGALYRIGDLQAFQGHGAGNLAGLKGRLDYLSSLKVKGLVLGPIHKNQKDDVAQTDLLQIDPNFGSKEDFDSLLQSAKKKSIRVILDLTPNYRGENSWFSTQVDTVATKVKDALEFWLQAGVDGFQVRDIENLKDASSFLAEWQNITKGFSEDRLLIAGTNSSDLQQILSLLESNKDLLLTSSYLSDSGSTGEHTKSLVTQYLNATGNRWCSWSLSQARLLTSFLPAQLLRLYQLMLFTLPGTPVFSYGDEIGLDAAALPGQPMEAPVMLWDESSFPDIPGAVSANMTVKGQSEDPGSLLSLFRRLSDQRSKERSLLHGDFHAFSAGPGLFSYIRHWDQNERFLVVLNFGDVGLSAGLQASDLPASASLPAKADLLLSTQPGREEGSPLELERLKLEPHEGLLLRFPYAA
# [2] = molecular target: mouse CD98hc ectodomain (recombinant) (mouse) (UniProt P10852); assay: as above
# mouse CD98hc ectodomain (recombinant) (mouse), sequence (P10852 100-526): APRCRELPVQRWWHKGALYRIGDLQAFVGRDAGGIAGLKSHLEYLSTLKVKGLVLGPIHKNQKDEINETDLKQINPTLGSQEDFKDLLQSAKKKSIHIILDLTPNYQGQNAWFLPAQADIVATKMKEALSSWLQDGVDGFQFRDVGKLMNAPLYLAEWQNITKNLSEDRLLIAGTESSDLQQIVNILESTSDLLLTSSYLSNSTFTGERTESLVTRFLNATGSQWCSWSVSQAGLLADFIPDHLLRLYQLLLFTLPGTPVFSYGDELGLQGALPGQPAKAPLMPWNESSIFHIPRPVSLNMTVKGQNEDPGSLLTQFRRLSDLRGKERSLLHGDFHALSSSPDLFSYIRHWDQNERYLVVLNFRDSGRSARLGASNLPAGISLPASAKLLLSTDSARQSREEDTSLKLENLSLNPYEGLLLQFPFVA
# human serum albumin = molecular target: T1, human serum albumin (human, UniProt P02768 25-609); assay: ELISA, VNAR-hFc in Expi293 medium on coated HSA (negative control)
# T1 construct: Negative control antigen in ELISA; also called HSA
# T1 sequence (P02768 25-609 limits assumed): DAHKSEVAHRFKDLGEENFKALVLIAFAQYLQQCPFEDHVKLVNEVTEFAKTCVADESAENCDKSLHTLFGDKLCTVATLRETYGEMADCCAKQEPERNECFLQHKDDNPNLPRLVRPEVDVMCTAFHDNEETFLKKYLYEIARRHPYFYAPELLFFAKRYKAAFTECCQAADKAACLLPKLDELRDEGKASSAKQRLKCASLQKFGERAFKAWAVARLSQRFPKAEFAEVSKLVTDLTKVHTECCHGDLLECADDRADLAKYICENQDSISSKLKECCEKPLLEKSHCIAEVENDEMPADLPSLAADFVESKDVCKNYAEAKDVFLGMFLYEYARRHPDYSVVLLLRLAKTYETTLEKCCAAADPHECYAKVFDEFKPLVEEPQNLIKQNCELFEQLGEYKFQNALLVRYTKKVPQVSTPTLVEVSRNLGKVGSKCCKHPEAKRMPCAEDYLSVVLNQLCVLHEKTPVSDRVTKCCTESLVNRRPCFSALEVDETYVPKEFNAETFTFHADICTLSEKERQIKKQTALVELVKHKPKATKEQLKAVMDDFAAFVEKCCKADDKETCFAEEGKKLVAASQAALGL
# Description: The clones were reformatted as bivalent VNAR-Fc by cloning the VNARs into the commercial pFUSE vector (pFUSE-hIgG1e3-Fc2). The Fc region of the protein contained CH2 and CH3 domains with the hinge that served as a flexible spacer between the two parts of the Fc-fusion protein. N-termini of the construct contained the IL2 signal sequence to allow secretion. A HEK Expi293 expression system was used to transiently express the proteins. The VNAR clones were expressed as Fc formats in mammalian cells in small (1 ml) scale in 96-well plates. Media was collected and used directly for ELISA in order to confirm binding to the ectodomain of mouse and human CD98hc. Human serum albumin was used as the negative control.
# [3] = molecular target: human CD98hc ectodomain (recombinant) (human) (UniProt P08195); assay: ELISA, purified VNAR-Fc titrated on plate-coated CD98hc (1 ug/mL)
# [4] = molecular target: mouse CD98hc ectodomain (recombinant) (mouse) (UniProt P10852); assay: as above
Binder,Binding [relative units] (relative units) [1],Binding [relative units] (relative units) [2],Binding [relative units] (human serum albumin),EC50 [3] [nM],EC50 [4] [nM]
B1,0.043,0.043,0.054,–,–
B2,3.31,0.186,0.06,6,86
B3,1.48,0.041,0.053,107,–
B4,0.042,0.041,0.052,–,–
B5,2.97,0.135,0.065,–,–
B6,2.19,0.078,0.056,56,819
B7,3.93,0.108,0.072,6,504
B8,3.5,0.417,0.074,28,190
B9,0.044,0.044,0.054,–,–
B10,0.041,0.042,0.052,–,–
B11,0.076,0.084,0.081,–,–
B12,0.043,0.041,0.051,–,–
B13,3.99,0.563,0.112,12,72
B14,3.76,0.115,0.073,3,3860
B15,0.046,0.045,0.055,–,–
B16,0.048,0.049,0.059,–,–
B17,3.03,0.096,0.072,–,–
B18,0.049,0.065,0.063,–,–

# Source: patent US20220177597A1 (OSSIANIX, published 2022)
